Results as given in article PMC5007808, “Structure-oriented substrate specificity engineering of aldehyde-deformylating oxygenase towards aldehydes carbon chain length” (Biotechnology for Biofuels, 2016).

Experiments:
purified protein = substrate: CCCCCC=O; assay: purified protein; conditions: NADH/PMS reducing system, catalase, 80 uM ferrous ammonium sulfate, 100 mM HEPES, 100 mM KCl, pH 7.2, room temperature
[1] = substrate: CCCCCCC=O; assay: GC headspace quantification of alkane product; format: biochemical, Synechococcus elongatus; conditions: NADH/PMS reducing system, catalase, 80 uM ferrous ammonium sulfate, 100 mM HEPES, 100 mM KCl, pH 7.2, 37 °C
[2] = substrate: CCCCCCCC=O; assay: GC headspace quantification of alkane product; format: biochemical, Synechococcus elongatus; conditions: NADH/PMS reducing system, catalase, 80 uM ferrous ammonium sulfate, 100 mM HEPES, 100 mM KCl, pH 7.2, 37 °C
[3] = substrate: CCCCCCCCC=O; assay: GC headspace quantification of alkane product; format: biochemical, Synechococcus elongatus; conditions: NADH/PMS reducing system, catalase, 80 uM ferrous ammonium sulfate, 100 mM HEPES, 100 mM KCl, pH 7.2, 37 °C

Row | Protein | Km (purified protein) [µM] | kcat (purified protein) [s⁻¹] | kcat/Km (purified protein) [M⁻¹ s⁻¹] | Km [1] [µM] | kcat [1] [s⁻¹] | kcat/Km [1] [M⁻¹ s⁻¹] | Km [2] [µM] | kcat [2] [s⁻¹] | kcat/Km [2] [M⁻¹ s⁻¹] | Km [3] [µM] | kcat [3] [s⁻¹] | kcat/Km [3] [M⁻¹ s⁻¹]
1 | cADO-1593 (Synechococcus elongatus PCC 7942 = FACHB-805) (protein, full length, codon-optimized gene in pET-28a, His-tag (nickel column), E. coli BL21(DE3); apo enzyme reconstituted with Fe(II)) MPQLEASLELDFQSESYKDAYSRINAIVIEGEQEAFDNYNRLAEMLPDQRDELHKLAKMEQRHMKGFMACGKNLSVTPDMGFAQKFFERLHENFKAAAAEGKVVTCLLIQSLIIECFAIAAYNIYIPVADAFARKITEGVVRDEYLHRNFGEEWLKANFDASKAELEEANRQNLPLVWLMLNEVADDARELGMERESLVEDFMIAYGEALENIGFTTREIMRMSAYGLAAV | 930 ± 100 | 0.03 | 31.7 | 590 ± 70 | 0.0132 ± 0.0005 | 21.7 ± 1.67 | 180 ± 30 | 0.0233 ± 0.001 | 130 ± 5 | 69 ± 8.7 | 0.0102 ± 0.000333 | 150 ± 8.33
2 | cADO-1593 (Synechococcus elongatus PCC 7942 = FACHB-805; A121F) (protein, full length, codon-optimized gene in pET-28a, His-tag (nickel column), E. coli BL21(DE3); apo enzyme reconstituted with Fe(II)) MPQLEASLELDFQSESYKDAYSRINAIVIEGEQEAFDNYNRLAEMLPDQRDELHKLAKMEQRHMKGFMACGKNLSVTPDMGFAQKFFERLHENFKAAAAEGKVVTCLLIQSLIIECFAIAFYNIYIPVADAFARKITEGVVRDEYLHRNFGEEWLKANFDASKAELEEANRQNLPLVWLMLNEVADDARELGMERESLVEDFMIAYGEALENIGFTTREIMRMSAYGLAAV | 960 ± 50 | 0.115 | 120 | 560 ± 60 | 0.025 ± 0.00167 | 45 ± 3.33 | 180 ± 36 | 0.0163 ± 0.001 | 90 ± 5 | 140 ± 22 | 0.0128 ± 0.000667 | 90 ± 5
